Assay [1] has as its system MDA-MB-231/HER2 (HER2 knock in) cells. Nature of the assay: In vitro association study (flow cytometry), MDA-MB-231/HER2. It counts as cell-based, human. The note with it: MDA-MB-231/HER2, 3.33 nM, over 24 h, mean±SD.
For assay [2], the system named is HER2-positive MDA-MB-453 cells. Kind of assay: Binding of 2D3-dendrimer conjugates to MDA-MB-453 cells (Cy5 MFI). It counts as cell-based, human. The note with it: for MFI (mean fluorescence intensity, Cy5): MDA-MB-453 cells incubated with dendrimers, triplicate wells, mean with standard deviation; for binding to MDA-MB-453 cells: flow cytometry, result in words.
The target in assay [3] is T1, ErbB2-ECD (Homo sapiens, UniProt P04626). Kind of assay: SPR, ErbB2-ECD amine-coupled on chip, analyte injected, 25 °C, 1:1 Langmuir fit; affibody dimeric.
In assay [4] the target is T1, ErbB2-ECD. Nature of the assay: SPR, ErbB2-ECD amine-coupled on chip, analyte injected, 25 °C, 1:1 Langmuir fit.
Assay [5] addresses T2, HER2 (human epidermal growth factor receptor 2) on cells (human, UniProt P04626 23-1255).
T2 construct: whole, on cells; also called ERBB2; HER2 receptor
Kind of assay: flow cytometry (Cy5), BT-474 cells, 1 h, conjugate at 3 mM (so in the source).

The target in assay [6] is T2, HER2 (human epidermal growth factor …). Kind of assay: flow cytometry (Cy5), BT-474 cells, 1 h, conjugate at 12 mM (so in the source).
The target is the same in assay [7]. Kind of assay: flow cytometry (Cy5), BT-474 cells, 1 h, conjugate at 6 mM (so in the source).
Assay [8] has the same target. Kind of assay: flow cytometry (Cy5), BT-474 cells, 1 h, conjugate at 25 mM (so in the source).
Assay [9] shares this target. Nature of the assay: flow cytometry (Cy5), MDA-MB-231 parental cells (HER2 lo, control), 0.5 h.
The target is the same in assay [10]. Nature of the assay: flow cytometry (Cy5), MDA-MB-231/HER2 cells, 0.5 h.

In the case of “(MeTzPh)PEG4CO-NHPEG24CO—[N(PN)2][Lys]2[Lys]4[Lys]8[((α-NHCy5)1(α-NHAc)7)(ε-NH-COPEG1100)8], G3 [Compound 52]”, in assay [1], the “percent of cellular association” value was “significantly lower association”. For the same molecule, in assay [2], the “MFI (mean fluorescence intensity, Cy5)” value was determined as 3.097 ± 0.01 and the “binding to MDA-MB-453 cells” value was “did not bind”.

Consider “(MeTzPh)PEG4CO-NHPEG24CO—[N(PN)2][Lys]2[Lys]4[Lys]8[Lys]16[((α-NHCy5)1(α-NHAc)15)(ε-NH-COPEG1100)16], G4 [Compound 53]”, for which the “percent of cellular association” value in assay [1] is on record as “significantly lower association”. Besides, in assay [2], the “MFI (mean fluorescence intensity, Cy5)” value came to 6.827 ± 0.07 and the “binding to MDA-MB-453 cells” value is listed as “did not bind”.

As to “Affibody protein (HER2, Affibody AB) (designed binder)”, in the assay with ErbB2-ECD [3], the Kd amounted to 0.000266 µM, the koff turned out to be 0.00051 s⁻¹ and the kon is 1.9e+06 M⁻¹ s⁻¹.

Consider “Affibody-BCN/N3-PEG24CO-[N(PN)2][Lys]2[Lys]4[Lys]8[(α-NHGlu-vc-PAB-MMAE)8(ε-NH-COPEG1100)8], G3, Compound 77 (designed binder)”, for which, in the assay with ErbB2-ECD [4], the Kd came out at 0.05 µM, the off-rate (koff) is 0.0013 s⁻¹ and the on-rate constant (kon) came to 25000 M⁻¹ s⁻¹.

In the assay with ErbB2-ECD [4], “Affibody-BCN/N3-PEG24CO-[N(PN)2][Lys]2[Lys]4[Lys]8[(α-NHGlu-vc-PAB-MMAE)8(ε-NH-COPEG2000)8], G3, Compound 78 (designed binder)” came in with a dissociation constant (Kd) of 0.036 µM, a dissociation rate constant (koff) of 0.00114 s⁻¹ and an on-rate (kon) of 32000 M⁻¹ s⁻¹.

In the case of “(MeTzPh)PEG4CO-NHPEG24CO—[N(PN)2][Lys]2[Lys]4[Lys]8[Lys]16[Lys]32[((α-NHCy5)1(α-NHAc)31)(ε-NH-COPEG1100)32], G5 [Compound 54]”, the “percent of cellular association” value in assay [1] was “significantly lower association”. In [2], the “MFI (mean fluorescence intensity, Cy5)” value amounted to 4.349 ± 0.08 and the “binding to MDA-MB-453 cells” value is “did not bind”.

B1: [[(ε-NHCO-PEG1100)8(α-NHDOTA)4.75(α-NHCy5)0.5(α-NH2)2.75][Lys]8[Lys]4[Lys]2[Lys]-CONH-CH2-CH2-S-]2MAL-PEG3-NHCO-PEG24-CONH-PEG4-(PhTzMe)/TCO-NHCO-PEG24-(MAL)Me/ … (VHH)
VHH: EVQLVESGGSLVQPGGSLRLSCAASGFTFDDYAMSWVRQVPGKGLEWVSSINWSGTHTDYADSVKGRFTISRNNANNTLYLQMNSLKSEDTAVYYCAKNWRDAGTTWFEKSGSAGQGTQVTVSS
modifications: the additional cysteine (in …) coupled to the methylmaleimide of linker SRS-12 (intermediate SRS-14), whose TCO is joined to the tetrazine of dendrimer SRS-4-Mal (maleimide core, Cy5, DOTA, PEG1100)
As to B1, the MFI in assay [5] was found to be 915; in assay [6], 2270; in [7], 1460; in [8], 2150.

B2: [(ε-NHCO-PEG1100)16(α-DOTA)7(α-NHCy5)1(α-NH2)8][Lys]16[Lys]8[Lys]4[Lys]2[Lys]-(PN)NCO-PEG24-CONH-PEG4-(PhTzMe)/TCO-NHCO-PEG24-(MAL)Me/Cys-Nanobody SRS-17 (VHH)
VHH: EVQLVESGGSLVQPGGSLRLSCAASGFTFDDYAMSWVRQVPGKGLEWVSSINWSGTHTDYADSVKGRFTISRNNANNTLYLQMNSLKSEDTAVYYCAKNWRDAGTTWFEKSGSAGQGTQVTVSS
modifications: the additional cysteine (in …) coupled to the methylmaleimide of linker SRS-12 (intermediate SRS-14), whose TCO is joined to the tetrazine of dendrimer HH-2 (1 Cy5, 7 DOTA, 16 PEG1100)
For the molecule B2, the MFI came out at 1020 in [5], 2270 in [6], 1530 in assay [7] and 2550 in assay [8].

B3: BHALys[Lys]2[Lys]4[Lys]8[((α-NH-COPEG24NH-COPEG4(PhMeTz)/TCO-PEG3NH-COPEG24NH-Glu-DBCO/N3-Nanobody)1(α-Lys(α-NHCy5)(ε-NHDFO))1(α-NH2)6)(ε-NH-COPEG1000)8], G3, … (VHH)
VHH: EVQLVESGGSLVQPGGSLRLSCAASGFTFDDYAMSWVRQVPGKGLEWVSSINWSGTHTDYADSVKGRFTISRNNANNTLYLQMNSLKSEDTAVYYCAKNWRDAGTTWFEKSGSAGQGTQVTVSS
modifications: # (unnatural amino acid, p-azido-phenylalanine, after ...QVTVSS) clicked to the DBCO of linker Compound 51, whose TCO is joined to the tetrazine on the surface of the G3 lysine dendrimer Compound 27 (Cy5, DFO, 8 PEG1000)
notes: also called BHA-G3-PEG1000 + NB
Take B3: the “percent of cellular association” value in assay [9] was 25.1%; in assay [10], 218%.

B4: BHA[Lys]2[Lys]4[Lys]8[Lys]16[((α-NH-COPEG24NH-COPEG4(PhMeTz)/TCO-PEG3NH-COPEG24NH-Glu-DBCO/N3-Nanobody)1(α-Lys(α-NHCy5)(ε-NHDFO))1(α-NH2)14(ε-NH-COPEG1000)16], … (VHH)
VHH: EVQLVESGGSLVQPGGSLRLSCAASGFTFDDYAMSWVRQVPGKGLEWVSSINWSGTHTDYADSVKGRFTISRNNANNTLYLQMNSLKSEDTAVYYCAKNWRDAGTTWFEKSGSAGQGTQVTVSS
modifications: # (unnatural amino acid, p-azido-phenylalanine, after ...QVTVSS) clicked to the DBCO of linker Compound 51, whose TCO is joined to the tetrazine on the surface of the G4 lysine dendrimer Compound 28 (Cy5, DFO, 16 PEG1000)
notes: One nanobody on each dendrimer; also called single 2D3-dendrimer conjugate; BHA-G4-PEG1000 + NB
B4: the “percent of cellular association” value in [9] came to 20%; in [10] it was 157%.

B5: [(ε-NHCO-PEG1100)16(α-DOTA)7(α-NHCy5)1(α-NH2)8][Lys]16[Lys]8[Lys]4[Lys]2[Lys]-(PN)NCO-PEG24-CONH-PEG4-(PhTzMe)/TCO-PEG3-NHCO-PEG24-Glu-DBCO/N3-Nanobody SRS-22 (VHH)
VHH: EVQLVESGGSLVQPGGSLRLSCAASGFTFDDYAMSWVRQVPGKGLEWVSSINWSGTHTDYADSVKGRFTISRNNANNTLYLQMNSLKSEDTAVYYCAKNWRDAGTTWFEKSGSAGQGTQVTVSS
modifications: # (unnatural amino acid, p-azido-phenylalanine, after ...QVTVSS) clicked to the DBCO of SRS-22a (linker Compound 51 on dendrimer HH-2: 1 Cy5, 7 DOTA, 16 PEG1100)
Take B5: the MFI was 2640 in assay [5], 6550 in assay [6], 4910 in assay [7] and 6490 in assay [8].

B6: [(ε-NHCO-PEG1100)16(α-NHCy5)1(α-NHDOTA)8(α-NH2)7][Lys]16[Lys]8[Lys]4[Lys]2[Lys]-CONH-CH2-CH2-S-(Me)MAL-PEG24-CONH-Bn-Tz(Me)/TCO-NHCO-PEG24-(MAL)Me/Cys-Nanobody … (VHH)
VHH: EVQLVESGGSLVQPGGSLRLSCAASGFTFDDYAMSWVRQVPGKGLEWVSSINWSGTHTDYADSVKGRFTISRNNANNTLYLQMNSLKSEDTAVYYCAKNWRDAGTTWFEKSGSAGQGTQVTVSS
modifications: the additional cysteine (in …) coupled to the methylmaleimide of linker SRS-12 (intermediate SRS-14), whose TCO is joined to the tetrazine of dendron RP-5 (1 Cy5, 8 DOTA, 16 PEG1100)
In the case of B6, the MFI in assay [5] is 716; in [6], 1370; in assay [7], 732; in [8], 1450.

B7: BHALys[Lys]2[Lys]4[((α-NH-COPEG24NH-COPEG4(PhMeTz)/TCO-PEG3NH-COPEG24NH-Glu-DBCO/N3-Nanobody)1(α-Lys(α-NHCy5)(ε-NHDFO))1(α-NH2)2)(ε-NH-COPEG1000)4], G2, … (VHH)
VHH: EVQLVESGGSLVQPGGSLRLSCAASGFTFDDYAMSWVRQVPGKGLEWVSSINWSGTHTDYADSVKGRFTISRNNANNTLYLQMNSLKSEDTAVYYCAKNWRDAGTTWFEKSGSAGQGTQVTVSS
modifications: # (unnatural amino acid, p-azido-phenylalanine, after ...QVTVSS) clicked to the DBCO of linker Compound 51, whose TCO is joined to the tetrazine on the surface of the G2 lysine dendrimer Compound 25 (Cy5, DFO, 4 PEG1000)
notes: also called BHA-G2-PEG1000 + NB
As to B7, the “percent of cellular association” value in assay [9] came out at 30.8%; in [10], 190%.

B8: BHALys[Lys]2[Lys]4[Lys]8[Lys]16[((α-NH-COPEG24NH-COPEG4(PhTzMe)/TCO-PEG3-NHCO-PEG24-(MAL)Me/Cys-Nanobody)1(α-NHCy5)1(α-NHDOTA))10(α-NH2)4)(ε-NH-COPEG1000)16] … (VHH)
VHH: EVQLVESGGSLVQPGGSLRLSCAASGFTFDDYAMSWVRQVPGKGLEWVSSINWSGTHTDYADSVKGRFTISRNNANNTLYLQMNSLKSEDTAVYYCAKNWRDAGTTWFEKSGSAGQGTQVTVSS
modifications: the additional cysteine (in …) coupled to the methylmaleimide of SRS-21a (linker SRS-12 on G4 dendrimer SRS-1: 1 Cy5, 10 DOTA, 16 PEG1000)
Take B8: the MFI in [5] was determined as 3100; in assay [6], 5260; in [7], 4640; in assay [8], 4760.

B9: BHA[Lys]2[Lys]4[Lys]8[Lys]16[Lys]32[((α-NH-COPEG24NH-COPEG4(PhMeTz)/TCO-PEG3NH-COPEG24NH-Glu-DBCO/N3-Nanobody)1(α-Lys(α-NHCy5)(ε-NHDFO))1(α-NH2)30(ε-NH-COPEG100 … (VHH)
VHH: EVQLVESGGSLVQPGGSLRLSCAASGFTFDDYAMSWVRQVPGKGLEWVSSINWSGTHTDYADSVKGRFTISRNNANNTLYLQMNSLKSEDTAVYYCAKNWRDAGTTWFEKSGSAGQGTQVTVSS
modifications: # (unnatural amino acid, p-azido-phenylalanine, after ...QVTVSS) clicked to the DBCO of linker Compound 51, whose TCO is joined to the tetrazine on the surface of the G5 lysine dendrimer Compound 29 (Cy5, DFO, 32 PEG1000)
notes: also called BHA-G5-PEG1000 + NB
As to B9, the figures for the “percent of cellular association” value in [9] and in assay [10] were 17.5% and 165%, respectively.

B10: [[(ε-NHCO-PEG1100)8(α-NHDOTA)4.75(α-NHCy5)0.5(α-NH2)2.75][Lys]8[Lys]4[Lys]2[Lys]-CONH-CH2-CH2-S-]2MAL-PEG3-NHCO-PEG24-CONH-PEG4-(PhTzMe)/TCO-PEG3-NHCO-PEG24-Glu … (VHH)
VHH: EVQLVESGGSLVQPGGSLRLSCAASGFTFDDYAMSWVRQVPGKGLEWVSSINWSGTHTDYADSVKGRFTISRNNANNTLYLQMNSLKSEDTAVYYCAKNWRDAGTTWFEKSGSAGQGTQVTVSS
modifications: # (unnatural amino acid, p-azido-phenylalanine, after ...QVTVSS) clicked to the DBCO of SRS-20a (linker Compound 51 on dendrimer SRS-4-Mal: maleimide core, Cy5, DOTA, PEG1100)
Regarding B10, the MFI worked out at 1500 in assay [5], 3140 in assay [6], 2170 in [7] and 3400 in [8].

Values taken from US20240293588A1, “THERAPEUTIC CONJUGATES” (Starpharma Pty Ltd, priority 2020, published 2024).
